Where a chain is given by its changes, count along the chain named. Read-outs that look alike come from different tables or passages of the source.
B1: IL-12 (ligand)
chain 1: IWELKKDVYVVELDWYPDAPGEMVVLTCDTPEEDGITWTLDQSSEVLGSGKTLTIQVKEFGDAGQYTCHKGGEVLSHSLLLLHKKEDGIWSTDILKDQKEPKNKTFLRCEAKNYSGRFTCWWLTTISTDLTFSVKSSRGSSDPQGVTCGAATLSAERVRGDNKEYEYSVECQEDSACPAAEESLPIEVMVDAVHKLKYENYTSSFFIRDIIKPDPPKNLQLKPLKNSRQVEVSWEYPDTWSTPHSYFSLTFCVQVQGKSKREKKDRVFTDKTSATVICRKNASISVRAQDRYYSSSWSEWASVPCS
chain 2: RNLPVATPDPGMFPCLHHSQNLLRAVSNMLQKARQTLEFYPCTSEEIDHEDITKDKTSTVEACLPLELTKNESCLNSRETSFITNGSCLASRKTSFMMALCLSSIYEDLKMYQVEFKTMNAKLLMDPKRQIFLDQNMLAVIDELMQALNFNSETVPQKSSLEEPDFYKTKIKLCILLHAFRIRAVTIDRVMSYLNAS
B2: Y61 (antibody, V domains shown)
VH: QVQLVQSGGGVVQPGRSLRLSCAASGFTFSSYGMHWVRQAPGKGLEWVAFIRYDGSNKYYADSVKGRFTISRDNSKNTLYLQMKSLRAEDTAVYYCKTHGSHDNWGQGTMVTVSS
VL: SYVLTQPPSVSGTPGQRVTISCSGGRSNIGSNTVKWYQQLPGTAPKLLIYGNDQRPSGVPDRFSGSKSGTSASLAITGVQAEDEADYYCQSYDRGTHPALLFGTGTKVTVLG
B3: J695 (antibody, V domains shown)
VH: B2 VH with Q6E, K84N
VL: B2 VL with S1Q, Y2S, T13A, G25S, G51Y, V79L, G95Y
B4: 103-14 (antibody, V domains shown)
VH: B2 VH
VL: SYVLTQPPSVSGTPGQRVTISCSGGRSNIGSNTVKWYQQLPGTAPKLLIYGNDQRPSGVPDRFSGSKSGTSASLAITGVQAEDEADYYCQSYDRGFTGSMVFGTGTKVTVL

What was measured:
[1] = target: Y61 L94Y; assay: kinetic binding
[2] = target: 78-34; assay: kinetic binding
[3] = target: Y61 L50Y; assay: kinetic binding
[4] = target: B1; assay: kinetic binding
[5] = target: B1; assay: receptor binding assay (RBA)
[6] = target: T1, human IL-12 p70 (UniProt P29460 23-328; P29459 23-219); assay: receptor binding assay (RBA)
T1 chain 1: B1 chain 1
T1 chain 2: B1 chain 2

[7] = target: T1, human IL-12 p70; assay: kinetic binding
[8] = target: T1, human IL-12 p70; assay: receptor binding assay (RBA)

Question: Which results are given for B1?
Answer: Kd [1]: 341 pM; koff [2]: 0.0164 s⁻¹; Kd [3]: 138 pM

Question: What does the source list for B2?
Answer: Kd [4]: 604 pM; IC50 [5]: 16 pM

Question: B3 was tested. Which IC50 [6] did it give?
Answer: 50 pM

Question: What does the source list for B4?
Answer: koff [7]: 0.00067 s⁻¹; IC50 [8]: 40 pM

Reference: US20120288494A1 (published 2012)
